Square brackets hold non-standard residues; d marks the D form. Ends that are not written are not given here. pT = C[C@@H](OP(=O)(O)O)[C@H](N)C(=O)O
Legend:
HEF1, endogenous = HEF1, endogenous (UniProt Q14511); test: GST pull-down (bead-conjugated GST-PBD) with anti-HEF1 immunoblot, bands quantified with ImageJ; settings: HeLa total cell lysate, parent: 1.0
[1] = molecular target: T1, Polo box domain of mouse Plk1 (residues 367-603), for crystallization (mouse, UniProt Q07832 367-603); test: crystal structure; Plk1 PBD (10 mg/ml) with pThr-804 peptide added in a 1:3 molar ratio, incubated overnight; sitting-drop vapor diffusion at 295 K, 0.1 M sodium citrate pH 5.5, 15% PEG 6000; 2.9 Å; settings: both partners purified
T1 construct: Polo box domain of mouse Plk1, Swiss Prot entry Q07832, residues 367-603; residues 371-593 are in the final model; TEV site ENLYFQS between the tag and the PBD, cleaved between Q and S: a serine is left before the PBD; also called Plk1 PBD; Plk1-PBD; source: E. coli BL21 (DE3) CodonPlus RIL, purified (Ni-NTA, TEV digestion, Superdex-75 gel filtration); not shown: His6, N-terminal, cleaved
T1 sequence (Q07832 367-603): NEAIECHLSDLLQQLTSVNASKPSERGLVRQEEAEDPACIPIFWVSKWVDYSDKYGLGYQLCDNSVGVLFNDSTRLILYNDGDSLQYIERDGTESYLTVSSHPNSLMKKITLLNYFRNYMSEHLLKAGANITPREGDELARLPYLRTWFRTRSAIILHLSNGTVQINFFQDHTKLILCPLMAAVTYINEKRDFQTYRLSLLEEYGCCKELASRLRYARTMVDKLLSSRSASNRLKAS

Sequence of HEF1, endogenous (Q14511 whole entry, the tested form may be a part): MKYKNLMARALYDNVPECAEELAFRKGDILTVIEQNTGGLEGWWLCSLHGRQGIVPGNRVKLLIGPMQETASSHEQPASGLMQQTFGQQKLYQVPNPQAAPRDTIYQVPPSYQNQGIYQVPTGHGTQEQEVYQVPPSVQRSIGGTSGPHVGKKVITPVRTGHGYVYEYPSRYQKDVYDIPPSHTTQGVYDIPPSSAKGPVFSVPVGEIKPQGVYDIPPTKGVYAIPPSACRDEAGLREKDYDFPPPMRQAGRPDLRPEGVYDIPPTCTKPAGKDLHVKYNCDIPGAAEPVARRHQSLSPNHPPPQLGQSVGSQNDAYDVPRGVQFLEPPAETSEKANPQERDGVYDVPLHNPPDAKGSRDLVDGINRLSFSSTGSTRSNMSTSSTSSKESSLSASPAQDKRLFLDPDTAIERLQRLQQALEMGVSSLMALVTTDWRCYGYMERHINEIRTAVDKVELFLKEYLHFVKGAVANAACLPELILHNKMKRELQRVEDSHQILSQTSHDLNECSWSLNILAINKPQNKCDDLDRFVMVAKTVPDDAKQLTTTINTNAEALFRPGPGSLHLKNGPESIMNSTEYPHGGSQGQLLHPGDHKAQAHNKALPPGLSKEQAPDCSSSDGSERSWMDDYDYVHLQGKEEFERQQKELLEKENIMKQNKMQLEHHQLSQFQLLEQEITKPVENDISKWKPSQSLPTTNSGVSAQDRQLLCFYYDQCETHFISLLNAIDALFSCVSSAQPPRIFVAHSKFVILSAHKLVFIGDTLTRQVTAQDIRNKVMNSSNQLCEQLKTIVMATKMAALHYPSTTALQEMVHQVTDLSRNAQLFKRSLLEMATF

ratio to parent (HEF1, endogenous; asynchronously growing (Async.)) | ratio to parent (HEF1, endogenous; nocodazole (Noc)-treated (M phase)) | ratio to parent (HEF1, endogenous; thymidine (Thy)-treated (S phase)) | binding result [1] | Molecule
0.1 | 0.2 | 0.1 |  | GST-Plk1 PBD WT (Polo box domain of Plk1) H538A; K540M
 |  |  | binds | LHYPS[pT]TALQE (HEF1 (NEDD9), human, aa 799-809; 800-HYPSpTTAL-807 is in the final model; source: synthetic peptide) [HEF1 pThr-804 peptide (799-LHYPSpTTALQE-809), free, for crystallization]

Reference: paper PMC5777258, “Phosphorylation of human enhancer filamentation 1 (HEF1) stimulates interaction with Polo-like kinase 1 leading to HEF1 localization to focal adhesions” (The Journal of Biological Chemistry, 2017)
